Experimental data taken from US7138248B2, “Method of inhibiting inward rectifier, G-protein activated, mammalian, potassium channels and uses thereof” (California Institute of Technology, priority 1993, dated 2006).
pEC50, pIC50: −log10 of the molar value. Entries after “also recorded” stand apart in the source; their conditions may differ. Values belong to the compound of their own block, whether it stands above or below them.

Assays:
[1] = target: T1, atrial inward rectifier K+ (KG) channel (Rattus norvegicus, UniProt P48548+P63251); test: Two-electrode voltage clamp of the transmitter-evoked inward current (I5HT) in oocytes injected with atrial RNA + 5HT1A-R RNA; format: cell-based
T1 construct: is expressed in oocytes injected with atrial RNA; expressed in transfected cells; host or cells: Xenopus laevis oocytes injected with rat atrial total or poly(A) RNA plus 5HT1A receptor cRNA
T1 sequence (P63251 1-501): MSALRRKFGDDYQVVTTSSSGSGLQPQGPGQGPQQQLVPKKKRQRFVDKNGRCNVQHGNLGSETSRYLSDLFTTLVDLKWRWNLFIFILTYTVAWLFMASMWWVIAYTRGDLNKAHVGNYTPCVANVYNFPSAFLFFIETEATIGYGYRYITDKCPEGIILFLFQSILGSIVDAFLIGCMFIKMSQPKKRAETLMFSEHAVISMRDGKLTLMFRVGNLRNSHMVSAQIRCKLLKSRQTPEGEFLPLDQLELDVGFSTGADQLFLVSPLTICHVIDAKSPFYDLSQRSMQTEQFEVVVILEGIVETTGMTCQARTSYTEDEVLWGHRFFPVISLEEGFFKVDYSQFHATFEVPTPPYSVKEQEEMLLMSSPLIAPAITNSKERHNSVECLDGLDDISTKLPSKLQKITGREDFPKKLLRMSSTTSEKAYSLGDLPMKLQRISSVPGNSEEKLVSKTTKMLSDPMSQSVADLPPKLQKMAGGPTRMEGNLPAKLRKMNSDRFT
T1 sequence (P48548 1-419): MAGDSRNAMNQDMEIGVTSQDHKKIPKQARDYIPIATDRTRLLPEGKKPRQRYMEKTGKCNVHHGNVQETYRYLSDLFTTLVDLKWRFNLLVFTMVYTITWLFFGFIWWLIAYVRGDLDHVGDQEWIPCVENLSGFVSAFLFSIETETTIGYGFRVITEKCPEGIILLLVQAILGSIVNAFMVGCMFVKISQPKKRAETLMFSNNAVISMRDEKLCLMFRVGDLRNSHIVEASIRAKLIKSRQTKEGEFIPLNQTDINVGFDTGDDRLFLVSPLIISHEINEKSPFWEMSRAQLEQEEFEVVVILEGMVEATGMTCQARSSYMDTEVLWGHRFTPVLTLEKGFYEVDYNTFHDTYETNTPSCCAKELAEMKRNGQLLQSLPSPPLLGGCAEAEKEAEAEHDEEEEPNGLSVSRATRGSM

Xenopus laevis oocytes = test: Membrane (resting) current of oocytes in normal ND96 solution, two-electrode voltage clamp; format: cell-based
Method: Preparation of RNA and oocytes. Total RNA was extracted from atria and ventricles of 19–21 day old rats of both sexes using the procedure of Chomczinski and Sacchi (1987) Anal. Biochem. 162:156–159. Poly (A) RNA was separated on an oligo-dT cellulose column (type 3, Collaborative Biochemical Products). Ventricle poly(A) RNA was fractionated by centrifugation (18 h, 30,000 g, 4° C.) on a linear 5%–25% sucrose gradient. Xenopus laevis oocytes were prepared as previously described (Dascal & Lotan (1992) in Methods in Molecular Biology, v. 13: Protocols in Molecular Neurobiology, eds. Longstaff & Revest). and injected with either 50–120 ng/oocyte poly(A) RNA, 120–200 ng/oocyte total RNA, or 35 ng/oocyte fractionated poly(A) RNA. In most cases, 5HT1A-R RNA (5–20 ng/oocyte) was co-injected with atrial or ventricle RNA. Final volume of the injected RNA solution was 50 nl. The oocytes were incubated for 3–7 days in the NDE solution (ND96 (see below) containing 1.8 Mm CaCl2 and supplemented with 2.5 Mm Na-pyruvate and 50 μg/ml gentamicin). Occasionally, either 2.5–5% heat-inactivated horse serum or 0.5 mM theophylline were added to the NDE solution. […]

Kir3.1+2 = test: ACh-induced inward current (m2R activation) in oocytes coinjected with Kir3.1 and Kir3.2 cRNAs; format: cell-based, rat Kir3.1, mouse Kir3.2; details: 1 μM ACh, 0.5 ng each cRNA per oocyte, mean±SEM, n=5
Text: (§1) Plasmids and DNAS. To isolate Kir3.2 and Kir3.3 from mouse brain RNA, oligonucleotides were designed that anneal to the first assigned methionine codon and the assigned stop codon of mouse Kir3.2 and Kir3.3 (Lesage et al (1994) FEBS Lett. 353:37–42). Kir3.0-specific sequences were coupled to a 5′-end untranslated sequence from alfalfa mosaic virus (Jobling and Gehrke (1987) Nature 325:622–625) and a T7 RNA polymerase recognition site to confer an optimal translational initiation site and allow RNA synthesis […] (cRNA). At the 3′ end, a poly(A) tail was added to confer RNA stability. Total RNA from adult mouse brain (purchased from Clontech) was used as template for cDNA synthesis (Sambrook et al., supra.). PCR was conducted in a thermal cycler (Perkin-Elmer) by using Vent Polymerase (New England Biolabs), which minimizes misincorporations during the amplification step. Kir3.2 and Kir3.3 PCR-derived sequences were then inserted into the pNoTA vector (5 Prime→3 Primer, Inc.) for subsequent sequence analysis. […]
(§2) Electrophysiology. Whole-cell currents from oocytes were measured by using an Axoclamp 2A or Geneclamp 500 amplifier (Axon Instruments, Foster City, Calif.) in the two-electrode, voltage-clamp configuration. […]

Kir3.2 = test: ACh-induced inward current (m2R activation) in oocytes injected with Kir3.2 cRNA; format: cell-based, mouse; details: 1 μM ACh, 1 ng cRNA, n=7
Text: as §1, §2

Kir3.1 = test: ACh-induced inward current (m2R activation) in oocytes injected with Kir3.1 cRNA; format: cell-based, rat; details: 1 μM ACh, 1 ng cRNA, n=5
Text: as §1, §2

[2] = system: constitutively active inward rectifier K+ channel(s) (IhK); test: Two-electrode voltage clamp of the high-K+-evoked inward current (IhK) in oocytes; format: cell-based, Xenopus laevis
Method: Preparation of RNA and oocytes. Total RNA was extracted from atria and ventricles of 19–21 day old rats of both sexes using the procedure of Chomczinski and Sacchi (1987) Anal. Biochem. 162:156–159. Poly (A) RNA was separated on an oligo-dT cellulose column (type 3, Collaborative Biochemical Products). Ventricle poly(A) RNA was fractionated by centrifugation (18 h, 30,000 g, 4° C.) on a linear 5%–25% sucrose gradient. Xenopus laevis oocytes were prepared as previously described (Dascal & Lotan (1992) in Methods in Molecular Biology, v. 13: Protocols in Molecular Neurobiology, eds. Longstaff & Revest). and injected with either 50–120 ng/oocyte poly(A) RNA, 120–200 ng/oocyte total RNA, or 35 ng/oocyte fractionated poly(A) RNA. In most cases, 5HT1A-R RNA (5–20 ng/oocyte) was co-injected with atrial or ventricle RNA. Final volume of the injected RNA solution was 50 nl. The oocytes were incubated for 3–7 days in the NDE solution (ND96 (see below) containing 1.8 Mm CaCl2 and supplemented with 2.5 Mm Na-pyruvate and 50 μg/ml gentamicin). Occasionally, either 2.5–5% heat-inactivated horse serum or 0.5 mM theophylline were added to the NDE solution. Incubation of oocytes in pertussis toxin (PTX; List Biochemicals) was done in NDE solution without the addition of pyruvate, serum or theophylline. cDNAs of 5HT1A receptor (Karschin et al. (1991) P.N.A.S. 88:5694–5698) and Gi2a (a gift from M. I. Simon, Caltech) in pBluescript were linearized, and RNA was synthesized in vitro as described (Dascal and Lotan, supra.).
Electrophysiological recordings were performed using the two electrode voltage clamp method with the Dagan 8500 amplifier (Dagan Instruments, Minneapolis) as described (Dascal et al. (1986) Mol. Brain Res. 1:201–209). The oocytes were usually kept in the ND96 solution: 96 mM NaCl/2 mM KC1/1 mM MgCl2/1 mM CaCl2/5 mM Hepes, pH=7.5. Most measurements were done in the high K^+ solution (hK): 96 mM KCl/2 mM NaCl/1 mM MgCl2/1 mM CaCl2/5 mM Hepes, pH=7.5. Solutions containing intermediate concentrations of K^+ were made by substituting K^+ for Na^+. Solution exchange and drug application were done by superfusing the cell placed in a 0.5 ml chamber. GDP-β-S (trilithium salt; Sigma) was injected by pressure (Dascal et al. supra.). Stimulation, data acquisition, and analysis were performed using pCLAMP software (Axon Instruments, Foster City, Calif.).

[3] = target: Kir3.1 (Kir3.1/KGA), inward rectifier G-protein activated potassium channel polypeptide cloned from cardiac atrium (rat) (UniProt P63251); test: cell-based or functional assay
[4] = target: Kir3.2, isolated by PCR from mouse brain RNA (mouse) (UniProt P48542); test: cell-based or functional assay
[5] = target: serotonin 5HT1A receptor (5HT1A-R); test: cell-based or functional assay
[6] = 400–800 pmole/oocyte injected, 4 cells
[7] = RNA-injected oocytes without Gi2α RNA, 500 ng/ml, 20–26 h

Kir3.2, isolated by PCR from mouse brain RNA (mouse), sequence (P48542 whole entry): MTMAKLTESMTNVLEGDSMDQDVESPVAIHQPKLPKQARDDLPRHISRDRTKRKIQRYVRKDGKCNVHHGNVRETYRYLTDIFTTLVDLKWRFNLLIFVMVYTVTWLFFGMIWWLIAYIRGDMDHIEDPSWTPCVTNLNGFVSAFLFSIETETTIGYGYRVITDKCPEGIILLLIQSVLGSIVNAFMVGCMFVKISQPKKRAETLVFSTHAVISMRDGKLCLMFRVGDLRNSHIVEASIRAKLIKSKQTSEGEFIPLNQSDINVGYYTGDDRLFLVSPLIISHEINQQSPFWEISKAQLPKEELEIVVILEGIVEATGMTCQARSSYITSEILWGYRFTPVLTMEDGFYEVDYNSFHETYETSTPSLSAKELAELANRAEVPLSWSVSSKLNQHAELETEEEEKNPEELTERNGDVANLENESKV
Method for native oocytes: Electrophysiological recordings were performed using the two electrode voltage clamp method with the Dagan 8500 amplifier (Dagan Instruments, Minneapolis) as described (Dascal et al. (1986) Mol. Brain Res. 1:201–209). […]

Compound: NCCc1c[nH]c2ccc(O)cc12 [5HT, serotonin]
pEC50 [1]: ~7.82 | inward current induced by the transmitter in hK solution ([1]; RNA-injected oocytes of one frog, n=6): 1102±84 nA | saturation of the I5HT dose-response curve ([1]; hK solution, FIG. 1C): about 100 nM | I5HT, inward current evoked by 5HT ([1]; oocytes injected with Atrial + 5HT1A-R RNA, -80 mV, hK solution, 5HT 100 nM to 2 μM, mean±SEM (n)): 290 ± 43 (55) nA | change in membrane current in ND96 bath solution (Xenopus laevis oocytes; RNA-injected oocytes, 4 to 5 days after injection, 10 μM ACh or 1–2 μM 5HT): did not cause any significant change | effect of 5HT on current (native oocytes): no effect

Compound: CC(=O)OCC[N+](C)(C)C [ACh, acetylcholine]
inward currents induced by ACh (IK,ACh) (Kir3.1+2): −6.4±0.8 μA | inward currents induced by ACh (IK,ACh) (Kir3.2): −698±98 nA | inward currents induced by ACh (IK,ACh) (Kir3.1): −365±45 nA

Compound: [Ba+2] [Ba^2+]
block of I5HT ([1]; 300 μM, hK solution, FIG. 3B): almost completely blocks; also recorded: almost completely abolished | pIC50 ([1]; hK solution, -80 mV, FIG. 3D, read-out: IC50 (half-inhibition concentration) for block of I5HT): ~4.82 | block of IhK ([2]; 300 μM, hK solution): about 20% | pIC50 ([2]; hK solution, -80 mV, FIG. 3D, read-out: IC50 for IhK block): < 2.52 | change in resting current or conductance in normal ND96 (Xenopus laevis oocytes; 5 μM-3 mM, native or RNA-injected oocytes, holding potential -80 mV): did not cause any significant changes

Compound: Nc1nc2c(ncn2[C@@H]2O[C@H](COP(=O)(O)OP(O)(O)=S)[C@@H](O)[C@H]2O)c(=O)[nH]1 [GDP-β-S]
I5HT after injection, % of control [1, 6]: 4±1 % of control | IhK after injection, % of control [2, 6]: 115±8 % of control

inward K+ current (IK) in high-K+ solution, Kir3.1 alone with Gβ1γ2 [3]: -104 nA | inward K+ current (IK), Kir3.1 alone (control of the Kir3.1+3 experiment) [3]: -481 nA | Gβγ-induced, inwardly rectifying currents in oocytes injected with Kir3.2 cRNA alone (1 ng per oocyte) [4]: -5.1 µA | inward K+ current (IK) in high-K+ solution, Kir3.2 alone with Gβ1γ2 [4]: -305 nA
Compound: G protein subunits Gβ1 and Gγ2 (Gβ1γ2)

PTX inhibition of I5HT in oocytes injected with atrial RNA plus cRNAs encoding 5HT1A-R and Gi2α [5]: 50%
Compound: Gi2α, PTX-sensitive α subunit of a G-protein

fold increase of IK of Kir3.1+2 over Kir3.1 alone (with Gβ1γ2) [3]: 40 fold | fold increase of IK of Kir3.1+2 over Kir3.2 alone (with Gβ1γ2) [3]: 14 fold | fold increase of the ACh-induced current of Kir3.1+2 over Kir3.1 alone [3]: 17 fold | fold increase of the ACh-induced current of Kir3.1+2 over Kir3.2 alone [3]: 9 fold | fold increase of the major open-time component of Kir3.1+2 against Kir3.2 alone [3]: 7 fold | inward K+ current (IK) in high-K+ solution, Kir3.1+2 coexpressed with Gβ1γ2 [3]: -4.3 µA | inward currents induced by ACh (IK,ACh), Kir3.1+2 coexpressed with m2R, 1 µM ACh [3]: -6.4 µA | major component of single-channel open-time duration, Kir3.1+2 [3]: 3.5 ms | time constant of the slower activation component at -80 mV, Kir3.1+2 coexpressed [3]: 213 ms
Compound: Kir3.2, isolated by PCR from mouse brain RNA (from UniProt P48542 1-425)

fold increase of IK of Kir3.1+3 over Kir3.1 alone [3]: 7 fold | inward K+ current (IK), Kir3.1 and Kir3.3 coexpressed (Kir3.1+3) [3]: -3.4 µA | Gβγ-induced, inwardly rectifying currents in oocytes coinjected with Kir3.2 and Kir3.3 cRNAs (0.5 ng each per oocyte) [4]: -129 nA
Compound: Kir3.3, isolated by PCR from mouse brain RNA (from UniProt P48543 1-393)

Compound: pertussis toxin [PTX]
effect of treatment on I5HT [1, 7]: not affected | inhibition of I5HT ([1]; oocytes injected with atrial RNA plus cRNAs encoding 5HT1A-R and Gi2α, P<0.01): about 50% | effect of treatment on IhK [2, 7]: not affected | effect on IhK ([2]; oocytes injected with atrial RNA plus cRNAs encoding 5HT1A-R and Gi2α): unaffected
